The series deals with RNase HI catalytic domain (wild-type) (Bacillus halodurans, UniProt Q9KEI9 59-196). The series can be described thus: EMSA; 10 uM DNA, 50 uM protein; 100 mM K+; Native 10% PAGE in 1X TBE, 20 mM potassium phosphate, 100 mM KCl, pH 7.0; UV shadowing; temperature not stated. The note with it: protein: recombinant. (In general: Mobility shift assays separate free from complexed probe on a gel.)
RNase HI catalytic domain (wild-type), sequence (Q9KEI9 59-196): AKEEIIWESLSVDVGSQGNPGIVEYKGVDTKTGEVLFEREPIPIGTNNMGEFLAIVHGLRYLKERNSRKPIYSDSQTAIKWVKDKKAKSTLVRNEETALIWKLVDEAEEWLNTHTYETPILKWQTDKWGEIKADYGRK

B1: B1 (structured_DNA)
DNA: TTGGGTGGGTGGGTGGGTTCAACGACGACGGCATCATC
As to B1, the binding result (parallel G4 with 3' single-stranded tail) is “no binding”.

B2: B0 (ssDNA)
DNA: TTGACTAAGTGCCTTAGTTCAACGACGACGGCATCATC
Regarding B2, where the note is “single strand”, the binding result is reported as “no binding”.

Values taken from article PMC6520340, “Development of a ribonuclease containing a G4-specific binding motif for programmable RNA cleavage”.
